# Assay results from US20050058645A1.
# Columns and labels:
# [1] = molecular target: T1, FLAG-tagged IL-4Rα-gp130 chimeric receptor; experiment: cell-based or functional assay
# T1 sequence: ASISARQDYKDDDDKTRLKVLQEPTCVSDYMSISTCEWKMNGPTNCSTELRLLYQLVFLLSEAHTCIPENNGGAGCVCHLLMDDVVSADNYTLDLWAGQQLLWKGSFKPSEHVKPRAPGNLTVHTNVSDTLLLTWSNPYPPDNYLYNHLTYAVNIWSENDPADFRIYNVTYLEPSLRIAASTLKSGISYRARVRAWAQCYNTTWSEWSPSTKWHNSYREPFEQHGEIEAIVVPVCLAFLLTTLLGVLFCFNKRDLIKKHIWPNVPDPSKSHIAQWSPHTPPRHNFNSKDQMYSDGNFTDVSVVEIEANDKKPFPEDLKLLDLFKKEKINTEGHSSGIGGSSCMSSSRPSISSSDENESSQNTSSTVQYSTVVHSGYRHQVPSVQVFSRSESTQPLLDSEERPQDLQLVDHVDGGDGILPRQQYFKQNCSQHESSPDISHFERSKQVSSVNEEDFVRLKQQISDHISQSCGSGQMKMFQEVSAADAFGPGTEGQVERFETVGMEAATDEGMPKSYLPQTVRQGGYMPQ
# [2] = molecular target: FLAG-tagged IL-13Rα1-gp130 chimeric receptor (human); experiment: cell-based or functional assay
# Chain of IL-4 (species not stated) (ligand) (P05112 25-153): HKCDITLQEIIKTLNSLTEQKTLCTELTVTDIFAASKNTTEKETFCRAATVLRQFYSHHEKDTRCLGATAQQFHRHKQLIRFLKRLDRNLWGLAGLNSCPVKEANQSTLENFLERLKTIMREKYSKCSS
Substance,"50% of maximal activity, STAT-3 luciferase reporter, lines 3.1.2 and 3.2.4 [1] [ng/mL]","50% of maximal activity, STAT-3 luciferase reporter, lines 3.1.2 and 3.2.4 [2] [pg/mL]"
IL-4 (species not stated) (ligand),2 to 4,–
IL-13 (species not stated) (ligand),–,100 to 200
